Assay results as given in the DeepSol protein solubility set.

Assay: soluble on expression in E. coli; label from the status in PepcDB or PDB records
In the case of “NTFYEITLEDESVLLDEVVAIGYGTQSKATVTSGVVSVKKAELMSSVSASPLNNLQGKVAGLDIRQTTGQPGAQPVVLIRGGSTDPANDSPLFVIDGVVRSNMNGLNQEDIESMEVLKDAASAAIYGAKAANGIILITTKQGSSKD”, the “soluble on expression in E. coli” value is reported as “not soluble”. With “NTRGMALFADGGIVGTKPYAASGSYIKKMSDYCKGCHYDNKARSGEGSCPFNSLYWRFMDKHEKRLATNPRIGMIFRSWDNMEASQRQAILDT” the “soluble on expression in E. coli” value was “not soluble”. In the case of “PDFTPQKFKEKTAEQLRVLQASFLNSSVLTDEELNRLRAQTKLTRREIDAWFTEKKKSKALKEEKMEIDESNAGSS”, the “soluble on expression in E. coli” value is reported as “soluble”. In the case of “PDLYNHAIVIGYGRVGSMLAQLLQSRHVPLLVIDDNSEHVLKAHAAGIPAIRGSAAADLVLAEAHPERAKIAVLAIPQPLEAGEILAKLRALNPELTLVARAQNDAEVKHLLGHGADATVVAEHEMAHSLAEMVLSSTNH”, the “soluble on expression in E. coli” value is reported as “not soluble”. For “PDMKESMSDLYYEMISSAQKSIWIATPYFVPNESIRTALKAAATKGVEVRVMVPEKNDSFLTQYASRSYFPELLLEGIEVYSYQKGFMHQKVMIIDGDLASVGTANMDMRSFQLNFEVNVFFTDAEAIRTLEAHFEEDMQESEKLS”, the “soluble on expression in E. coli” value was “soluble”. With “PEGPEIRRAADNLEAAIKGKPLTDVWFAFPQLKTYQSQLIGQHVTHVETRGKALLTHFSNDLTLYSHNQLYGVWRVVDTGEEPQTTRVLRVKLQTADKTILLYSASDIEMLRPEQLTTHPFLQRVGPDVLDPNLTPEVVKERLLSPRFRNRQFAGLLLDQAFLAGLGNYLRVEILWQVGLTGNHKAKDLNAAQLDALAHALLEIPRFSYATRGQVDENKHHGALFRFKVFHRDGEPCERCGSIIEKTTLSSRPFYWCPGCQH” the “soluble on expression in E. coli” value was “soluble”. In the case of “PIKMGWLKKQRSIVKNWQQRYFVLRAQQLYYYKDEEDTKPQGCMYLPGCTIKEIATNPEEAGKFVFEIIPASWDQNRMGQDSYVLMASSQAEMEEWVKFLRRVAG”, the “soluble on expression in E. coli” value is reported as “soluble”. For “PIPAWASGNLLTQAIRQQYYKPIDVDRMYGTIDSPKLEELFNKS”, the “soluble on expression in E. coli” value was “soluble”. In the case of “PISNIFAGLLFYVLSDYVTEDTGIRITRAELEKTIVEHGGKLIYNVILKRHSIGDVRLISCKTTTECKALIDRGYDILHPNWVLDCIAYKRLILIEPNYCFNVSQKMRAVAEKRVDCLGDSFENDISETKLSSLYKSQLSLPPMGELEIDSEVRRFPLFLFSNRIAYVPRRKISTEDDIIEMKIKLFGGKITDQQSLCNLIIIPYTDPILRKDCMNEVHEKIKEQIKASDTIPKIARVVAPEWVDHSINENCQVPEEDFPVVNY”, the “soluble on expression in E. coli” value is reported as “soluble”. In the case of “PKDDRLSAWKFWALYAADTGGALRIDAGAVAAVTAGGNSLLAVGITEVIGDFHAGEIVEILGPEGEIIGRGEVAYDSAVLITMLGKQTAQLPEGLQRPVVHADYLSDYASRA”, the “soluble on expression in E. coli” value is reported as “not soluble”. In the case of “PKYQSTAALLVNRSQDDTAATALNDQQADVGLIYTYKDLITRPVILNKVAKELKSTYPTLTSTALAKMITVSSTTNSQIFSIAVRSTSSQEAKDIANETASVFKNEAVKLMGKTISNVTIVSSGLKNNTPVFPNTK”, the “soluble on expression in E. coli” value is reported as “not soluble”. With “PLHHLMIGTWTPPGAIFTVQFDDEKLTCKLIKRTEIPQDEPISWMTFDHERKNIYGAAMKKWSSFAVKSPTEIVHEASHPIGGHPRANDADTNTRAIFLLAAKQPPYAVYANPFYKFAGYGNVFSVSETGKLEKNVQNYEYQENTGIHGMVFDPTETYLYSADLTANKLWTHRKLASGEVELVGSVDAPDPGDHPRWVAMHPTGNYLYALMEAGNRICEYVIDPATHMPVYTHHSFPLIPPGIPDRDPETGKGLYRADVCALTFSGKYMFASSRANKFELQGYIAGFKLRDCGSIEKQLFLSPTPTSGGHSNAVSPCPWSDEWMAITDDQEGWLEIYRWKDEFLHRVARVRIPEPGFGMNAIWYD” the “soluble on expression in E. coli” value was “soluble”. For “PLVCLADFKAHAQKQLSKTSWDFIEGEADDGITYSENIAAFKRIRLRPRYLRDMSKVDTRTTIQGQEISAPICISPTAFHSIAWPDGEKSTARAAQEANICYVISSYASYSLEDIVAAAPEGFRWFQLYMKSDWDFNKQMVQRAEALGFKALVITIDTPVLGNRRRDKRNQLNLEANILLKDLRALKEEKPTQSVPVSFPKASFCWNDLSLLQSITRLPIILKGILTKEDAELAMKHNVQGIVVSNHGGRQLDEVSASIDALREVVAAVKGKIEVYMDGGVRTGTDVLKALALGARCIFLGRPILWGLACKGEDGVKEVLDILTAELHRCMTLSGCQSVAEISPDLIQFSRL”, the “soluble on expression in E. coli” value was “soluble”. In the case of “PMLEVFYSGDRPPDRTRKQAFAAEASAIFQRVIGTPPGRLQLIIQIVSPENTLAVIDLDRPDSDTTAEPDQQ”, the “soluble on expression in E. coli” value is reported as “soluble”. In the case of “PPPAPIPDLKVFEREGVQLNLSFIRPPENPALLLITITATNFSEGDVTHFICQAAVPKSLQLQLQAPSGNTVPARGGLPITQLFRILNPNKAPLRLKLRLTYDHFHQSVQEIFEVNNLPVESWQ”, the “soluble on expression in E. coli” value is reported as “soluble”. For “PQEEVVRLHASSGTTGKPTVVGYTQNDIDTWANVVARSIRAAGGRKGDKVHVSYGYGLFTGGLGAHYGAERLGCTVIPMSGGQTEKQVQLIRDFHPDIIMVTPSYMLNLADEIERQGIDPHDLKLRLGIFGAEPWTDELRRSIEQRMGINALDIYGLSEIMGPGVAMECIETKDGPTI”, the “soluble on expression in E. coli” value was “not soluble”. With “PQEKVSRIHASSGTTGRPTVVGYTTGDLNNWADLVARSLRAGGVKPTDKVHVAYGYGLFTGGLGAHYGAERLGCTVIPMSGGMTDRQIQLIEDFEPDAIMVTPSYMLTIVDAMIKKGIDPSKTSLRTGVFGAEPWTEEMRTELEKQLNMDAVDIYGLSEVMGPGVAMECVDTKDGLHI” the “soluble on expression in E. coli” value was “not soluble”. For “PQQRRDIRFVWSGDTVGQGFGINPDIGGMRIYEAMRLRLPDFFIHSGDTIYADGPVPAQITAEGGRIWRNITTEAKSKVAETLDEYRGNYRYNLMDENLRRFNAEVPQIWQWDDHEVTNNWSPSKQLDDRYKVKDIQLLSSRARQAYLEYAPLRLQEADKGGRIYRKIPYGPMLDVFVLDMRSYRDGNDANLADKPGPTTAFMGCEQLDWLKRELDASTAQWKVIAADMPIGLGVPDGEVSPGVPRWEAIANGNDGPALGRELEIAELLAYLRAQKVRDCVWLTADVHYCAAHHYQPDLAVFQDFDPFWEFVAGPLNASSFGPNVLDKTFGPELVFQKAPPAQNTSPFAGYQFFGEVNIDGQTGEMSVALRDLDGVSVFERKLQP”, the “soluble on expression in E. coli” value was “not soluble”. In the case of “PSQVFKPLVSLFSPIEPSVYEARGRLPREQLGETRLDYDRTFQLASVEAARLGIAEPIGELYYSFEYNFFGAGFGDHDDPMGKSWLFFHGSDGRLLGQEVAGQGSWGERFYRLQYPIHGGRIAGLPGR”, the “soluble on expression in E. coli” value is reported as “not soluble”. For “PTSAPQHLTVEDVTDTTTTLKWRPPDRIGAGGIDGYLVEYCLEGSEEWVPANKEPVERCGFTVKDLPTGARILFRVVGVNIAGRSEPATLLQPVTIRE”, the “soluble on expression in E. coli” value was “soluble”. With “PVLIVTPLEDQQVFVGDRVEMAVEVSEEGAQVMWMKNGVELTREDSFKARYRFKKDGKRHILIFSDVVQEDRGRYQVITNGGQCEAELIVEEKQ” the “soluble on expression in E. coli” value was “soluble”. In the case of “PYAKGNFKAYEQELIGRFKHGESIHSDSIRFPDSLRYKTLVTGRTVYGGGGIMPDLFIPTDTALFNKLHRELLNKGIFNRAVLKYVDAHRQKLRQRFPDRQSYATFSIPEELTESLKAFAEAEKITWSTELFAQAEELIKCQLHAYIARDILGENDFFYFFNRMDKEYIKALDLLNDPDEYKRLLGK”, the “soluble on expression in E. coli” value is reported as “not soluble”. In the case of “PYNKNGFKVGMKLEGVDPEHQSVYCVLTVAEVCGYRIKLHFDGYSDCYDFWVNADALDIHPVGWCEKTGHKLHPPKGYKEEEFNWQTYLKTCKAQAAPKSLFENQNITVIPSGF”, the “soluble on expression in E. coli” value is reported as “soluble”. In the case of “QADMPLERIIEAEKRVECNDPLVALVVNENNTTVNNICQATHKQLFQLVQWAKLVPHFTSLPLTDQVQLLRAGWNELLIAAFSHRSMQAQDAIVLATGLTVNKSTAHAVGVGNIYDRVPSELVNKMKEMKMDKTELGCLRAIILYNPDVRGIKSVQEVEMLREKIYGVLEEYTRTTHPNEPGRFAKLLLRLPALRSIGLKCLEHLFFFKLIGDVPIDTFLMEMLEGTTDS”, the “soluble on expression in E. coli” value is reported as “soluble”. For “QALEYSGTKRFVYVIDENNKATRQEVLLGARVDNEVVIESGVEIGDKIVVQGIVNMRDGVEVKEIVAPLKANTTDVTRNDSESVEEEN”, the “soluble on expression in E. coli” value was “not soluble”. In the case of “QAMKELSKSDRTRQFIIESTAPVFNVKGLAGTSLTDLTEATNLTKGSIYGNFENKEAVAIAAFDYNWGHVKSVLTAKVQACNTYKEMLLVYSSMYNDADGSLFPVGGCPLLNTTIEADDTHDALRKKAGEAILSWKKNLVTIIKKGIQAKEFRPDTDVTKIAFSMIALVEGAILIHRATKNRAYSDYVFESLEDLIAGIEVKKK”, the “soluble on expression in E. coli” value is reported as “soluble”. For “QDNALKQVAAMAKIADRYVSAWGSEAQVEDDTIRRLLASLGYDTSSDDALLQSAEKKHKKDVVDPVLVVHQGSAIEVPLYLGVSARESEFDWRLQTEQGEVLEGYLQSQIVRDERAEGGPLVFALPNDLPLGYHTLLIARKRRKAPYEMTLIVTPQACYKQPALAQ”, the “soluble on expression in E. coli” value was “not soluble”. With “QGALYLVPTPIGNLEDMTFRAIRMLKEADIIAAEDTRNTVKLLNHFEITTRMTSYHQFTKENKEDNIIQRMLDGEVVALVSDAGMPSISDPGYELVQNALNANIPVIPLPGA” the “soluble on expression in E. coli” value was “not soluble”. In the case of “QGIETVTKANGYETLLAHFSYDELEEERKIASLLSYQVDGLILTESHHTPRTLQMIKNAGVPVVETMELPPQPIDMAVGLDHEDASYNAVKRMLDAGKRTIVYFGARLDTRTKLRMQGYDRAMNEAGLEPKHVLTGVHSSFSLAHDLLERALKTYPTLDGVFCTNDDIAIGTMLSAQQRGIQVPQQLAVVGYNALDIGQTISPKLTSVDTPRFQIGVKSAELLIARLKGEAQEEKVFDMGYQITSGESV”, the “soluble on expression in E. coli” value is reported as “not soluble”. For “QLTRERLTATSRYKLSSSDTFRVIGNPEPREGKLRMQVQLTGGSSPSYILYIRHEGEYEPVARGDMLKLRKFYARSVEEWEQKAPAMGRYMAGKGLSGSLHAKTGDVEILSTAKGPFSLRQKALDLSDRLAATLYELSPSLLSDSRRAMLEAMCLGREGEAPDVRRKFVAAGVAH”, the “soluble on expression in E. coli” value was “not soluble”. With “QNTLAENQFNQRRTIETTLMGSIISAFRARGDAGAREILTEWKDSPVSSGVYVIQGDEKKDILNRYIDSYTIERARLFAAGHPHSNLVHIEYDRFGEEYLFFTKDWDKLQARRLPSPLLIPGLPLAPIWHE” the “soluble on expression in E. coli” value was “not soluble”. For “QPKTFTVRIVTMDAEMEFNCEMKWKGKDLFDLVCRTLGLRETWFFGLQYTIKDTVAWLKMDKKVLDHDVSKEEPVTFHFLAKFYPENAEEELVQEITQHLFFLQVKKQILDEKVYCPPEASVLLASYAVQAKYGDYDPSVHKRGFLAQEELLPKRVINLYQMTPEMWEERITAWYAEHRGRARDEAEMEYLKIAQDLEMYGVNYFTIRNKKGTELLLGVDALGLHIYDPENRLTPKISFPWNEIRNISYSDKEFTIKPLDKKIDVFKFNSSKLRVNKLILQLCIGNHDLFMRRRKADSLEVQQMKAQAREEKARKQMERQRLA”, the “soluble on expression in E. coli” value was “soluble”. With “QQIGLKTNLLYWGTTTPNAGLEFRMGKKWTLDVSGGYNPFTFSHHRKLKHWLVAPELRYWTCEAFSGHFFGLHGIGGEYNVNDIDIPIGRLKKLNNYRYE” the “soluble on expression in E. coli” value was “not soluble”. In the case of “QRWSLPSLDPFGDRETAIETVGETVETSIDAVDTDSLAIAFSGGVDSALLAARLDAPLYVAGFPDSHDIEAARSAAELLGTEVRVVELTHDAIERAVPEIARATARTNAMDVQIALPLYLVAERVAGDGFDRLALGQGADELFGGYAKVAKAPEDPRVEADTVRGAQREVIASLPDQLERDVLALRAAGVEPVTPLLHDRVIGAALRLDGDLLVDGETRKVALRAAARESLPDEIADRDKKAAQYGSLAARELDRLARQAGYKRRMDDHVTQYVESLVE”, the “soluble on expression in E. coli” value is reported as “not soluble”.
